Experimental findings from PMC4560160 are described below.

For experiment [1], the target named is CCR5 endogenously expressed on human blood-derived monocytes, monocyte-derived macrophages (MDMs) and T cell blasts (human (endogenous in blood monocytes, MDMs and T cell blasts)) (UniProt P51681).
Experiment [2] shares this target. This is another data set of the same source.
For experiment [3], the target named is human CCR5 expressed on DHFR-deficient CHO cells (CHO-CCR5) (human) (UniProt P51681).

Sequence of CCL5 (P13501 24-91): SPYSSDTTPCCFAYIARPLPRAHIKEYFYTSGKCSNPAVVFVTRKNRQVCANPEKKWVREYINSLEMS

With “amino-oxypentane (AOP)-RANTES (from UniProt P13501 24-91) (ligand)”, in experiment [1], the CCR5 down-modulation on MDMs after overnight exposure to 100 nM ligand, detected with CTC5, flow cytometry was over 50%. In experiment [2], this substance yielded a CCR5 down-modulation on monocytes after overnight culture with 100 nM analog: reduction of the surface binding signal of MC5, 2D7 and CTC5, flow cytometry of 50%.
The corresponding values for “PSC-RANTES: Nα(n-nonanoyl)-des-Ser(1)-[L-thioprolyl(2), L-cyclohexylglycyl(3)]-RANTES(4-68) (from UniProt P13501 27-91) (ligand)” are over 50% and 50%.
On to “CCL5 (from UniProt P13501 24-91) (ligand)”, for which the CCR5 down-modulation: reduction of the specific binding of each anti-CCR5 mAb to the surface of CHO-CCR5 cells after 1 h at 37°C with 100 nM CCL5, flow cytometry in experiment [3] worked out at 50%.
